US20030223964A1

Target: FITC-labeled CD4 (UniProt P01730)
Experiment: size exclusion HPLC (Biosil 250) after incubation with FITC-labeled CD4; free CD4-FITC elutes at 2.67 minutes

| Substance | retention time of the complex on size exclusion HPLC [min] |
| --- | --- |
| US4 gp120, purified from CHO cell supernatant | 2.17 |
| oligomeric gp140 US4 (o-gp140 US4), purified from CHO cell supernatant | 1.9 |
